Assay results reported in patent US20210347858A1.

Biological target: human ACE2 receptor protein (hACE2) pre-coated on the plate of the GenScript sVNT C-Pass Kit (human) (UniProt Q9BYF1)
Assay: modified GenScript sVNT (FIG. 28), competitor HRP-RBD

UniProt Q9BYF1, sequence (Q9BYF1 18-740 limits assumed): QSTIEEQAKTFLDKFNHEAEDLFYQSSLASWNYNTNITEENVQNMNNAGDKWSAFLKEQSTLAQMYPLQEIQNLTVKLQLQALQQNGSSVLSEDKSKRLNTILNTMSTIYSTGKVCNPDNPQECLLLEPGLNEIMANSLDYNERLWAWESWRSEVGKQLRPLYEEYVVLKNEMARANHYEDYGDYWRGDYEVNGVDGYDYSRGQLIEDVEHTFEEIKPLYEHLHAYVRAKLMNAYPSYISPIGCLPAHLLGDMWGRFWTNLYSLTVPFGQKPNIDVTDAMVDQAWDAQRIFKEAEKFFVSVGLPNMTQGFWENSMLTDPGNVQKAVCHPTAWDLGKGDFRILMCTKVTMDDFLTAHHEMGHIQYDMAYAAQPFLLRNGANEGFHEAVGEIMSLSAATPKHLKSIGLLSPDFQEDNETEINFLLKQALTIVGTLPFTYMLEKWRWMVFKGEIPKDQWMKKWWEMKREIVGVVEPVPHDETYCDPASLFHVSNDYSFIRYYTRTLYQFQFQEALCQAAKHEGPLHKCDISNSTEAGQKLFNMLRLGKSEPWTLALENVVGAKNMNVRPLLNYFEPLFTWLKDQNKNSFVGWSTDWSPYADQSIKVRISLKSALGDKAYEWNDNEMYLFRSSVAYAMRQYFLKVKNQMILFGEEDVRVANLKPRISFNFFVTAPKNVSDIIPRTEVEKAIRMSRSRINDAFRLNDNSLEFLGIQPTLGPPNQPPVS

Q: With “Serum from uninoculated (non-targeted) chickens (antibody)” as the substance, how does the percent inhibition of RBD:ACE2 binding read?
A: < 5%
